In article PMC10913813 (The Journal of Cell Biology, 2024):

Biological target: T1, 6xHis-SUMO-Gin4 (S. cerevisiae, UniProt Q12263 1-1142)
T1 sequence (looked up): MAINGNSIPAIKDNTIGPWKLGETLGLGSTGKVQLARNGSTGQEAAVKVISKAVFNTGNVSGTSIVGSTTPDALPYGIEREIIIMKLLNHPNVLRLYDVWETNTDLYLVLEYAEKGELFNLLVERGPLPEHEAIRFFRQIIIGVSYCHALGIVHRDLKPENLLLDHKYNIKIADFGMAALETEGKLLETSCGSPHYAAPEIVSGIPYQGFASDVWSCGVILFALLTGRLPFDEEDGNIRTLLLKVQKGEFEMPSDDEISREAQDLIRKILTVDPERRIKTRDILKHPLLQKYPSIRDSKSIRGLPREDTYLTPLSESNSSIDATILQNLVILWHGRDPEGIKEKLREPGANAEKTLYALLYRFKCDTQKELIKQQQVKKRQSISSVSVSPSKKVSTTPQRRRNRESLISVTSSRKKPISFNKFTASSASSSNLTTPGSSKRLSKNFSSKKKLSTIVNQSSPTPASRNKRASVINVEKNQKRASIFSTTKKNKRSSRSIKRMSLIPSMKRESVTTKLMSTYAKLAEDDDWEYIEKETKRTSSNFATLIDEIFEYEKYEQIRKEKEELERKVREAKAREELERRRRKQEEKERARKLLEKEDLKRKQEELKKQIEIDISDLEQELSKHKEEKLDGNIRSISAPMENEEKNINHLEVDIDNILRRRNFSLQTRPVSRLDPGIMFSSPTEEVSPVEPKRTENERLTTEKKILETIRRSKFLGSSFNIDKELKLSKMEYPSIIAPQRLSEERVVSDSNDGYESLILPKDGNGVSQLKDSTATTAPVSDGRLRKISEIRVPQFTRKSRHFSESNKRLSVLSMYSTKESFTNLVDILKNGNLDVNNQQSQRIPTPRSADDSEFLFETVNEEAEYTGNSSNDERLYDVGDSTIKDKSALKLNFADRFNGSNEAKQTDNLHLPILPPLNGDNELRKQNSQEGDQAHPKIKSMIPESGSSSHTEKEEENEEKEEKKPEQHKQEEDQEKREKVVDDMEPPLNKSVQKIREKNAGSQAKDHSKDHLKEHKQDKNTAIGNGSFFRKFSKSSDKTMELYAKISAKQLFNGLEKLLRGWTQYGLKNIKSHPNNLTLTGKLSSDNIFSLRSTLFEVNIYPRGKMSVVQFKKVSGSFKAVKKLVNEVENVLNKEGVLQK
Assay: pull-down

B1: GST-Elm1^WT (enzyme, S. cerevisiae, UniProt P32801 1-640, looked up)
chain: MSPRQLIPTLIPEWAPLSQQSCIREDELDSPPITPTSQTSSFGSSFSQQKPTYSTIIGENIHTILDEIRPYVKKITVSDQDKKTINQYTLGVSAGSGQFGYVRKAYSSTLGKVVAVKIIPKKPWNAQQYSVNQVMRQIQLWKSKGKITTNMSGNEAMRLMNIEKCRWEIFAASRLRNNVHIVRLIECLDSPFSESIWIVTNWCSLGELQWKRDDDEDILPQWKKIVISNCSVSTFAKKILEDMTKGLEYLHSQGCIHRDIKPSNILLDEEEKVAKLSDFGSCIFTPQSLPFSDANFEDCFQRELNKIVGTPAFIAPELCHLGNSKRDFVTDGFKLDIWSLGVTLYCLLYNELPFFGENEFETYHKIIEVSLSSKINGNTLNDLVIKRLLEKDVTLRISIQDLVKVLSRDQPIDSRNHSQISSSSVNPVRNEGPVRRFFGRLLTKKGKKKTSGKGKDKVLVSATSKVTPSIHIDEEPDKECFSTTVLRSSPDSSDYCSSLGEEAIQVTDFLDTFCRSNESLPNLTVNNDKQNSDMKTDRSESSSHSSLKIPTPIKAMIRLKSSPKENGNRTHINCSQDKPSSPLMDRTVGKRTVNNSGARKLAHSSNILNFKAYINSEDSDIRETVEDVKTYLNFADNGQI
  binding result: binds
